The target in assay [1] is HLA-A*02:01. The assay can be described thus: IEDB peptide-MHC binding, purified MHC/competitive/fluorescence; filed as Kd, often an IC50 or EC50 that approximates it; ≥ and ≤ were set here for values at or beyond the usual limits of such assays.
Assay [2] addresses HLA-A*02:03. The assay is described as above.
For assay [3], the target named is HLA-A*02:11. The assay is described as above.
In assay [4] the target is HLA-A*02:12. The description is as above.
Assay [5] deals with HLA-A*02:16. The assay is described as above.
Assay [6] deals with HLA-A*02:19. The assay is described as above.
Assay [7] concerns the target HLA-A*03:01. The assay is described as above.
The target of assay [8] is HLA-A*23:01. Described as above.
Assay [9] addresses HLA-A*24:03. The assay is described as above.
In assay [10] the target is HLA-A*26:01. The description is as above.
The target in assay [11] is HLA-A*29:02. Described as above.
The target in assay [12] is HLA-A*68:02. Described as above. The settings on record: source organism: Vibrio vulnificus CMCP6.
Assay [13] deals with HLA-A*69:01. The assay is described as above.
In assay [14] the target is HLA-B*15:01. Described as above.
The target in assay [15] is HLA-B*15:17. Described as above.
The target in assay [16] is HLA-B*15:42. Described as above. The settings on record: source organism: Vibrio vulnificus CMCP6.
For assay [17], the target named is HLA-B*18:01. The assay is described as above.
The target in assay [18] is HLA-B*27:03. The description is as above.
For assay [19], the target named is HLA-B*39:01. Described as above.
For assay [20], the target named is HLA-B*45:06. Described as above. The settings on record: source organism: Vibrio vulnificus CMCP6.
Assay [21] deals with HLA-B*46:01. The description is as above.
Assay [22] deals with HLA-B*51:01. The description is as above.
Assay [23] deals with HLA-B*57:01. Described as above.
The target in assay [24] is HLA-B*83:01. The description is as above. The settings on record: source organism: Vibrio vulnificus CMCP6.
For assay [25], the target named is HLA-A*01:01. The assay can be described thus: IEDB peptide-MHC binding, purified MHC/competitive/fluorescence; ≥ and ≤ were set here for values at or beyond the usual limits of such assays. The following applies: source organism: Zaire ebolavirus.
For assay [26], the target named is HLA-A*03:01. The description is as above. The following applies: source organism: Zaire ebolavirus.
Assay [27] deals with HLA-A*11:01. The assay is described as above. The following applies: source organism: Zaire ebolavirus.
Assay [28] concerns the target HLA-A*24:02. Described as above. The settings on record: source organism: Zaire ebolavirus.
The target in assay [29] is HLA-C*05:01. The assay can be described thus: IEDB peptide-MHC binding, purified MHC/direct/fluorescence; filed as Kd, often an IC50 or EC50 that approximates it; ≥ and ≤ were set here for values at or beyond the usual limits of such assays. The following applies: source organism: Salmonella enterica subsp. enterica serovar Typhi str. CT18.
Assay [30] concerns the target HLA-A*02:06. The assay can be described thus: IEDB peptide-MHC binding, purified MHC/competitive/fluorescence; filed as Kd, often an IC50 or EC50 that approximates it; ≥ and ≤ were set here for values at or beyond the usual limits of such assays. The settings on record: source organism: Human immunodeficiency virus 1.
In assay [31] the target is HLA-A*26:02. The description is as above. The following applies: source organism: Human immunodeficiency virus 1.
[32] abbreviates: source organism: Vibrio vulnificus CMCP6.
Where [33] appears, read: source organism: Salmonella enterica subsp. enterica serovar Typhi.
Setting [34] is: source organism: Human immunodeficiency virus 1.

A value given as a limit tells only on which side of the number the result lay.

The Kd is the constant that tells how readily two partners part at equilibrium. Low readings indicate a tighter complex, high ones a looser complex. Consider LEMNDAPTA, for which the Kd in assay [1] (setting [32]), in [2] (setting [32]), in [3] (setting [32]), in assay [4] (setting [32]), in assay [5] (setting [32]) and in assay [6] (setting [32]) was ≥ 20 µM throughout. The Kd in [7] (setting [32]), in assay [8] (setting [32]), in [9] (setting [32]), in assay [10] (setting [32]), in [11] (setting [32]) and in [12] was ≥ 20 µM throughout. The Kd is ≥ 20 µM in assay [13] (setting [32]); ≥ 20 µM in assay [14] (setting [32]); ≥ 20 µM in assay [15] (setting [32]); ≥ 5 µM in assay [16]; 0.24 µM in [17] (setting [32]); ≥ 20 µM in [18] (setting [32]). The equilibrium dissociation constant (Kd) in assay [19] (setting [32]) is ≥ 20 µM; in assay [20], ≥ 5 µM; in assay [21] (setting [32]), ≥ 20 µM; in assay [22] (setting [32]) it was ≥ 20 µM; in assay [23] (setting [32]), ≥ 20 µM; in assay [24], ≥ 5 µM.
By IC50 is commonly meant the concentration that inhibits the measured activity by half. A lower IC50 goes with higher potency. ATDVPSATK: the IC50 is 12 µM in assay [25], 28.7 µM in assay [26], 2.14 µM in [27] and 64.6 µM in assay [28].
Take NTDEIPELI: the Kd was 0.114 µM in assay [29]; ≥ 20 µM in assay [1] (setting [33]); ≥ 20 µM in assay [2] (setting [33]); 0.0031 µM in assay [3] (setting [33]); ≥ 20 µM in assay [4] (setting [33]); ≥ 20 µM in [5] (setting [33]). The Kd in assay [6] (setting [33]), in assay [7] (setting [33]), in assay [8] (setting [33]), in [9] (setting [33]), in assay [10] (setting [33]) and in assay [11] (setting [33]) was ≥ 20 µM each time. In addition, the Kd in assay [14] (setting [33]), in assay [15] (setting [33]), in assay [17] (setting [33]), in assay [18] (setting [33]), in assay [19] (setting [33]) and in assay [21] (setting [33]) was ≥ 20 µM throughout. In addition, the Kd in assay [22] (setting [33]) and in [23] (setting [33]) was ≥ 20 µM throughout.
For LFNTIATLY, the equilibrium dissociation constant (Kd) in [1] (setting [34]) is 1.07 µM; in assay [2] (setting [34]), ≥ 20 µM; in assay [30] it was 1.29 µM; in [31] it was ≥ 20 µM; in [15] (setting [34]), 2.51 µM.
With VVPYEPPEV, the dissociation constant (Kd) is 0.0265 µM in assay [1] (source organism: Homo sapiens); 1.12 µM in assay [2] (source organism: Homo sapiens); 0.0093 µM in assay [3] (source organism: Homo sapiens); 0.161 µM in [4] (source organism: Homo sapiens); ≥ 20 µM in [13] (source organism: Homo sapiens).

(Values after the Immune Epitope Database (IEDB).)
